Measurements reported in patent publication CN117384291A (WUHAN ABCLONAL INC, dated 2024).

Target: T1, 人SALL4蛋白 (human, UniProt Q9UJQ4 1-1053, limits assumed)
T1 construct: Endogenous SALL4 in fixed tissue sections; also called human SALL4
T1 sequence (looked up): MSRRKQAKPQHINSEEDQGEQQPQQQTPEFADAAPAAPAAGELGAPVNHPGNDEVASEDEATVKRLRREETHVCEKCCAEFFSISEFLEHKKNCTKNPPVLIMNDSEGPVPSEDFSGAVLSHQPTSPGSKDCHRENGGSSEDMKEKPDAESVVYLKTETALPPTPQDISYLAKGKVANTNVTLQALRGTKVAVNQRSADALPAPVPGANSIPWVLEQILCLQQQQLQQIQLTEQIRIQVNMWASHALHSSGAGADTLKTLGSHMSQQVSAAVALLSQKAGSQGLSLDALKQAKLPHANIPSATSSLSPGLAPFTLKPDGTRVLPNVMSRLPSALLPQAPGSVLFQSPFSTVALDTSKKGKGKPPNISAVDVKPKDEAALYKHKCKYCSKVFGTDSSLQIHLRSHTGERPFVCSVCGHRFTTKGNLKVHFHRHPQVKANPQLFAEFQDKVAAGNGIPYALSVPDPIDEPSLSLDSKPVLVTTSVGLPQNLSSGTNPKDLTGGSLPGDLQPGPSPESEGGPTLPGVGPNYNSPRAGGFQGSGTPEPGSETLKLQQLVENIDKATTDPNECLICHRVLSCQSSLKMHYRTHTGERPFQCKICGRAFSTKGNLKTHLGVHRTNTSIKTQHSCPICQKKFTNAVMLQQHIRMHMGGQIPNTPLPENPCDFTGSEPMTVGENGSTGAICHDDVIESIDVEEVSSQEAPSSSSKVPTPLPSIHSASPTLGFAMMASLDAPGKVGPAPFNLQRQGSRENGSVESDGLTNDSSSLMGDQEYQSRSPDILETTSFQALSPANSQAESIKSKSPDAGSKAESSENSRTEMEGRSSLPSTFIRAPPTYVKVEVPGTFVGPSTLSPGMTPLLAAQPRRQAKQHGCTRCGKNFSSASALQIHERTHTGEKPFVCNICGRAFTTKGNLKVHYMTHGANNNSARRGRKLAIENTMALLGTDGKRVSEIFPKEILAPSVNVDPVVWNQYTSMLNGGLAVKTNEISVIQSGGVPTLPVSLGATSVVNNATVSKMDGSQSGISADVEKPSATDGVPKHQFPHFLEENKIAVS
Assay: IHC on paraffin sections of human seminoma, primary antibody 1:100

binding result: binds
B1: 抗人SALL4兔单克隆抗体 (antibody, V domains shown)
VH: QSLEESGGRLVTPGGSLTLTCTVSGFSLSSNSITWVRQAPGKGLEWIGTMNIDNSTYYMSWAKGRLTISKTSTTVTLKMTSLTTEDTATYFCARIAVVSNTDIWGPGTLVTVSF
VL: AQALTQTPSSVSAAVGGTVTISCQSSQNVYDANALSWYQQKPGQPPKRLIYSASTLASGVPSRFKGSGSGTQFTLTISGVQCDDAASYYCAGVYYGKIGFGGGTEVVVKG
notes: also called 试验例2制备的抗人SALL4兔单克隆抗体; 识别人SALL4的兔单克隆抗体
